From paper PMC7959541

Legend:
[1] = target: Cy5 labeled PDZ14 (engineered yeast SmF variant with a PDZ domain at its C-terminus, 14-mer) (Saccharomyces cerevisiae); experiment: dual-color fluorescence cross-correlation spectroscopy
[2] = target: Cy5 labeled PDZ14 (engineered yeast SmF variant with a PDZ domain at its C-terminus, 14-mer) (Saccharomyces cerevisiae); experiment: fluorescence burst analysis of two-colour confocal trajectories

**Q.** For “Alexa 488 labeled KKETPV14 (engineered yeast SmF variant with the short peptide KKETPV at its C-terminus, 14-mer)”, which stoichiometry N (KKETPV14:PDZ14) [1] is on record?
**A.** 1

**Q.** What about the stoichiometry N (KKETPV14:PDZ14) [2] of the same substance?
**A.** 0.99
